Common to all, as to assay: co-condensation microscopy
For data set [1], the target named is SARS-CoV-2 nucleocapsid (N), wild type (SARS-CoV-2) (UniProt P0DTC9).
The target in data set [2] is N175-419 (SARS-CoV-2) (UniProt P0DTC9).
In data set [3] the target is N1-246 (SARS-CoV-2) (UniProt P0DTC9).
Data set [4] has as its target N175-364 (SARS-CoV-2) (UniProt P0DTC9).
Data set [5] deals with N49-246 (SARS-CoV-2) (UniProt P0DTC9).

Regarding “GGGAUUAAAGGUUUAUACCUUCCCAGGUAACAAACCAACCAACUUUCGAUCUCUUGUAGAUCUGUUCUCUAAACGAACUUUAAAAUCUGUGUGGCUGUCACUCGGCUGCAUGCUUAGUGCACUCACGCAGUAUAAUUAAUAACUAAUUACUGUCGUUGACAGGACACGAGUAACUCGUCUAUCUUCUGCAGGCUGCUUACGGUUUCGUCCGUGUUGCAGCCGAUCAUCAGCACAUCUAGGUUUCGUCCGGGUGUGACCGAAAGGUAAG [UTR265]”, the binding signal (% fluorescence in condensates) in data set [1] turned out to be 35; in data set [2], 9.3; in data set [3], 13; in data set [4], 8.4; in data set [5] it was 18.

The values above are taken from article PMC7820290.
